From patent publication US20240108651A1 (THOMAS JEFFERSON UNIVERSITY, published 2024)

B1: mAb 10D2 (antibody, V domains shown)
VH: EVQLQQSGPELVNPGASVKMSCKASGYSFTSYILHWVKQKPGQGLEWIGYINPYNDATKYNEKFKGKATLTSDKSSSTAYMELSSVTSEDSAVYYCCSMITTAYWAYWGQGTLVTVSA
VL: NIMMTQSPSSLTVSAGEKVTMSCKSSQSILYGSTQKNYLAWYQQKPGQSPKLLIYWASTRESGVPDRFTGSGSGTDFTLTISSVQAEDLAVYYCHQYLSSYTFGGGTKLEIK
notes: Monoclonal antibody from a hybridoma; also called 10D2 Antibody; 10D2 mAb
B2: mAb 6D8 (antibody, V domains shown)
VH: QIQLVQSGPELKKPGETVKISCKASGYTFTNYGMNWVKQAPGRGLKWMGWINTYTGNPTYADDFKGRFDFSLETSASTAYLQINNLKNEDMAIYFCARDRGNSFDYWGQGTTLTVSS
VL: DIQMTQSPASLSVSVGETVTITCRASENIYSNLAWYQQKQGKSPQLLVYIAINLADGVPSRFSGSGSGTQYSLKINSLQSEDFGNYYCQHFWGTPRTFGGGTKLEIK
notes: Monoclonal antibody from a hybridoma; also called 6D8 Antibody; 6D8 mAb

Molecular target: T1, human desmoglein 2 (Dsg2) on cells (human, UniProt Q14126 50-1118)
T1 construct: whole, on cells; also called huma Dsg2; hDsg2
T1 sequence (looked up): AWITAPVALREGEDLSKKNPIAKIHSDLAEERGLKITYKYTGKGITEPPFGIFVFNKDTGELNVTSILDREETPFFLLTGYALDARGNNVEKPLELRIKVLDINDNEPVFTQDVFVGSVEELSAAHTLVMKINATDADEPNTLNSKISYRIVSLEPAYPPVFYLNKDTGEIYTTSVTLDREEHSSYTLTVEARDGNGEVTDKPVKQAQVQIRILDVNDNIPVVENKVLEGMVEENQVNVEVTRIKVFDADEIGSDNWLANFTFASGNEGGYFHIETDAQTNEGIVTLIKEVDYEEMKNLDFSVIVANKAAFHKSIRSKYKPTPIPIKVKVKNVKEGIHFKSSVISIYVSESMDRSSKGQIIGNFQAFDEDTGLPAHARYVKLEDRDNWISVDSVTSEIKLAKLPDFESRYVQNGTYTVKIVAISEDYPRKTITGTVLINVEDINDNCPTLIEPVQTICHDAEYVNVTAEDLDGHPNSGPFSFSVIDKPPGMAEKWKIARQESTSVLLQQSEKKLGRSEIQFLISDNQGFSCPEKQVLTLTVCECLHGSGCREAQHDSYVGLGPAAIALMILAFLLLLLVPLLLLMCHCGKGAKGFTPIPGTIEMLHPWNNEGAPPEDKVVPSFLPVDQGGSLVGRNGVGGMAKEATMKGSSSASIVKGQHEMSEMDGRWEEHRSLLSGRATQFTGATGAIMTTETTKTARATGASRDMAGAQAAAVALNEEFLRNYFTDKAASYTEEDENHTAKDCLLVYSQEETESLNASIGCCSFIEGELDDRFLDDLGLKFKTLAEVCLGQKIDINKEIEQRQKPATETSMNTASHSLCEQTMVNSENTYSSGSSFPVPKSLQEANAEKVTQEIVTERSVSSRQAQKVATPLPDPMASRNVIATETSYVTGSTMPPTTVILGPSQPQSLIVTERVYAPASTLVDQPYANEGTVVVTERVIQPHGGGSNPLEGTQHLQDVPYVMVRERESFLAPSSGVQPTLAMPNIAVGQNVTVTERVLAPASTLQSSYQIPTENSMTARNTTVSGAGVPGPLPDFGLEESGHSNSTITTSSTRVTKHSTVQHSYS
Assay: legend of FIG. 5: Dsg2 domain scheme; immunoblot and immunostaining of A431 SCC cells
From the text: P, Pro-region; EC, Extracellular Domain; TM, Transmembrane; IA, Intracellular Anchoring, ICS, Intracellular Cadherin Segment; LD, Linker Domain; RUD, Repeat Unit Domain; TD, Terminal Domain. 10D2 recognizes EC1 while 6D8 recognizes EC4. For FIG. 5B and FIG. 5C, A431 SCC was immunoblotted (FIG. 5B) or immunostained (FIG. 5C) with mAbs 6D8 and 10D2.

Binder	binding result
B1	binds
B2	binds
